Sequences and labels used below:
B1: A-Ye-03 (Fc fusion)
chain: QVQLQESGGGLVQAGGSLRLSCAASGFTLDYYAIGWFRQAPGKEREGVLCISSSGETTYYSDSVKGRFTISRDNAKNKVYLQMNSLKPEDTAVYYCGAELLGSGEGCYVWSRDGSYWGQGTQVTVSSTHTCPPCPAPEAAGGPSVFLFPPKPKDTLMISRTPEVTCVVVDVSHEDPEVKFNWYVDGVEVHNAKTKPREEQYNSTYRVVSVLTVLHQDWLNGKEYKCKVSNKALPAPIEKTISKAKGQPREPQVYTLPPSREEMTKNQVSLTCLVKGFYPSDIAVEWESNGQPENNYKTTPPVLDSDGSFFLYSKLTVDKSRWQQGNVFSCSVMHEALHNHYTQKSLSLSPG
B2: A-Na-16 (Fc fusion)
chain: QVQLVESGGGLVPPGESLRLSCAASGAIFRINTGAWYRQAPGKQRELVASLTTYGKTTYADFVKGRFTISRDDARNTVSLQMNSLKPEDTAIYYCHIGPEPRYGYWGQGTQVTVSSTHTCPPCPAPEAAGGPSVFLFPPKPKDTLMISRTPEVTCVVVDVSHEDPEVKFNWYVDGVEVHNAKTKPREEQYNSTYRVVSVLTVLHQDWLNGKEYKCKVSNKALPAPIEKTISKAKGQPREPQVYTLPPSREEMTKNQVSLTCLVKGFYPSDIAVEWESNGQPENNYKTTPPVLDSDGSFFLYSKLTVDKSRWQQGNVFSCSVMHEALHNHYTQKSLSLSPG
B3: A-Na-19 (Fc fusion)
chain: QVQLVESGGGLVPPGESLRLSCAASGAIFRINTGAWYRQAPGKQRELVASLTTYGKTTYADFVKGRFTISRDDAKNTVYLQMNSLKPEDTAIYYCHIGPEPRYGYWGQGTQVTVSSTHTCPPCPAPEAAGGPSVFLFPPKPKDTLMISRTPEVTCVVVDVSHEDPEVKFNWYVDGVEVHNAKTKPREEQYNSTYRVVSVLTVLHQDWLNGKEYKCKVSNKALPAPIEKTISKAKGQPREPQVYTLPPSREEMTKNQVSLTCLVKGFYPSDIAVEWESNGQPENNYKTTPPVLDSDGSFFLYSKLTVDKSRWQQGNVFSCSVMHEALHNHYTQKSLSLSPG
B4: A-Na-18 (Fc fusion)
chain: QVQLVESGGGLVPPGESLRLSCAASGAIFRINTGAWYRQAPGKQRELVASLTTYGKTTYADFVKGRFTISRDDAENTVSLQMNSLKPEDTAIYYCHIGPEPRYGYWGQGTQVTVSSTHTCPPCPAPEAAGGPSVFLFPPKPKDTLMISRTPEVTCVVVDVSHEDPEVKFNWYVDGVEVHNAKTKPREEQYNSTYRVVSVLTVLHQDWLNGKEYKCKVSNKALPAPIEKTISKAKGQPREPQVYTLPPSREEMTKNQVSLTCLVKGFYPSDIAVEWESNGQPENNYKTTPPVLDSDGSFFLYSKLTVDKSRWQQGNVFSCSVMHEALHNHYTQKSLSLSPG
B5: A-Ye-04 (Fc fusion)
chain: QVQLQESGGGLVPPGESLRLSCAASGAIFRINTGAWYRQAPGKQRELVASLTTYGKTTYADFVKGRFTISRDDAKNTVSLQMNSLKPEDTAIYYCHIGPEPRYGYWGQGTQVTVSSTHTCPPCPAPEAAGGPSVFLFPPKPKDTLMISRTPEVTCVVVDVSHEDPEVKFNWYVDGVEVHNAKTKPREEQYNSTYRVVSVLTVLHQDWLNGKEYKCKVSNKALPAPIEKTISKAKGQPREPQVYTLPPSREEMTKNQVSLTCLVKGFYPSDIAVEWESNGQPENNYKTTPPVLDSDGSFFLYSKLTVDKSRWQQGNVFSCSVMHEALHNHYTQKSLSLSPG
B6: L-Yr-13&14-13 (Fc fusion)
chain: QVQLQESGGGLVQAGDSLRLSCAASGSTFSITAMGWYRQPPGKQRELVASIITGDGDTNYADSVKGRFTISRDNAKNTMYLQMNSLKPEDTAVYYCYARTGYGSSWLMGHEYDYWGQGTQVTVSSTHTCPPCPAPEAAGGPSVFLFPPKPKDTLMISRTPEVTCVVVDVSHEDPEVKFNWYVDGVEVHNAKTKPREEQYNSTYRVVSVLTVLHQDWLNGKEYKCKVSNKALPAPIEKTISKAKGQPREPQVYTLPPSREEMTKNQVSLTCLVKGFYPSDIAVEWESNGQPENNYKTTPPVLDSDGSFFLYSKLTVDKSRWQQGNVFSCSVMHEALHNHYTQKSLSLSPG
B7: L-Yr-13&14-09 (Fc fusion)
chain: QVQLQESGGGLVQAGGSLKLSCAASGSTFSISAMGWYRQAPGKQRELVAAIVIGDGDTNYADSVKGRFTISRDNAKNTMYLQMNSLKPEDTAVYYCYARTGYGSSWLMGHEYDYWGQGTQVTVSSTHTCPPCPAPEAAGGPSVFLFPPKPKDTLMISRTPEVTCVVVDVSHEDPEVKFNWYVDGVEVHNAKTKPREEQYNSTYRVVSVLTVLHQDWLNGKEYKCKVSNKALPAPIEKTISKAKGQPREPQVYTLPPSREEMTKNQVSLTCLVKGFYPSDIAVEWESNGQPENNYKTTPPVLDSDGSFFLYSKLTVDKSRWQQGNVFSCSVMHEALHNHYTQKSLSLSPG
B8: L-Yr-13&14-02 (Fc fusion)
chain: QVQLQESGGGLVQAGGSLRLSCAASGGTFSITAMGWYRQAPGQQRELVAAIASGDGATNYADFVKGRFTISRDNAKNTMFLQMNSLKPEDSAVYYCYARTGYGSSWPMGHEYDYWGQGTQVTVSSTHTCPPCPAPEAAGGPSVFLFPPKPKDTLMISRTPEVTCVVVDVSHEDPEVKFNWYVDGVEVHNAKTKPREEQYNSTYRVVSVLTVLHQDWLNGKEYKCKVSNKALPAPIEKTISKAKGQPREPQVYTLPPSREEMTKNQVSLTCLVKGFYPSDIAVEWESNGQPENNYKTTPPVLDSDGSFFLYSKLTVDKSRWQQGNVFSCSVMHEALHNHYTQKSLSLSPG
B9: L-Yr-13&14-07 (Fc fusion)
chain: QVQLQESGGGLVQAGDSLRLSCAASGSTFGITAMGWYRQPPGKQRELVAAIIMSDGDTNYQDSVKGRFTISRDNAKNTMYLQMNSLKLEDTAVYYCYARTGYGSGRLMGHEYDYWGQGTQVTVSSTHTCPPCPAPEAAGGPSVFLFPPKPKDTLMISRTPEVTCVVVDVSHEDPEVKFNWYVDGVEVHNAKTKPREEQYNSTYRVVSVLTVLHQDWLNGKEYKCKVSNKALPAPIEKTISKAKGQPREPQVYTLPPSREEMTKNQVSLTCLVKGFYPSDIAVEWESNGQPENNYKTTPPVLDSDGSFFLYSKLTVDKSRWQQGNVFSCSVMHEALHNHYTQKSLSLSPG
B10: L-Yr-13&14-10 (Fc fusion)
chain: QVQLQESGGGLVQAGGSLRLSCAASGSTFSITAMGWYRQAPGQQRELVAAIASGDGATNYADFVKGRFTISRDNAKNTMFLQMNSLKPEDSAVYYCYARTGYGSSWLMGHEYDYWGQGTQVTVSSTHTCPPCPAPEAAGGPSVFLFPPKPKDTLMISRTPEVTCVVVDVSHEDPEVKFNWYVDGVEVHNAKTKPREEQYNSTYRVVSVLTVLHQDWLNGKEYKCKVSNKALPAPIEKTISKAKGQPREPQVYTLPPSREEMTKNQVSLTCLVKGFYPSDIAVEWESNGQPENNYKTTPPVLDSDGSFFLYSKLTVDKSRWQQGNVFSCSVMHEALHNHYTQKSLSLSPG
B11: L-Yr-13&14-12 (Fc fusion)
chain: QVQLQESGGGLVQAGDSLRLSCAASGSTFSITAMGWYRQPPGKQRELVAAIIMSDGDTNYQDSVKGRFTISRDNAKNTMYLQMNSLKPEDTAVYYCYARTGYGSGWLEGHEYDYWGQGTQVTVSSTHTCPPCPAPEAAGGPSVFLFPPKPKDTLMISRTPEVTCVVVDVSHEDPEVKFNWYVDGVEVHNAKTKPREEQYNSTYRVVSVLTVLHQDWLNGKEYKCKVSNKALPAPIEKTISKAKGQPREPQVYTLPPSREEMTKNQVSLTCLVKGFYPSDIAVEWESNGQPENNYKTTPPVLDSDGSFFLYSKLTVDKSRWQQGNVFSCSVMHEALHNHYTQKSLSLSPG
B12: L-Yr-13&14-11 (Fc fusion)
chain: QVQLQESGGGLVQAGDSLRLSCAASGSTFSITAMGWYRQPPGKQRELVAAIIMSDGDTNYQDSVKGRFTISRDNAKNTMYLQMNSLKLEDTAVYYCYARTGYGSGRLMGHEYDYWGQGTQVTVSSTHTCPPCPAPEAAGGPSVFLFPPKPKDTLMISRTPEVTCVVVDVSHEDPEVKFNWYVDGVEVHNAKTKPREEQYNSTYRVVSVLTVLHQDWLNGKEYKCKVSNKALPAPIEKTISKAKGQPREPQVYTLPPSREEMTKNQVSLTCLVKGFYPSDIAVEWESNGQPENNYKTTPPVLDSDGSFFLYSKLTVDKSRWQQGNVFSCSVMHEALHNHYTQKSLSLSPG
B13: L-Yr-13&14-08 (Fc fusion)
chain: QVQLQESGGGLVQPGGSLRLSCAASGSTFSISAMGWYRQPPGKQRELVALIIMSDGDTNYQDSVKGRFTISRDNANNTMYLQMNSLKLEDTAVYYCYARTGYGSGRLMGHEYDYWGQGTQVTVSSTHTCPPCPAPEAAGGPSVFLFPPKPKDTLMISRTPEVTCVVVDVSHEDPEVKFNWYVDGVEVHNAKTKPREEQYNSTYRVVSVLTVLHQDWLNGKEYKCKVSNKALPAPIEKTISKAKGQPREPQVYTLPPSREEMTKNQVSLTCLVKGFYPSDIAVEWESNGQPENNYKTTPPVLDSDGSFFLYSKLTVDKSRWQQGNVFSCSVMHEALHNHYTQKSLSLSPG
B14: L-Yr-13&14-17 (Fc fusion)
chain: QVQLQESGGGLVQAGGSLRLSCAASRSIFSSYVMAWYRQAPGKERELVALIRYGGSTDYADSVKGRFTISRDNSKNTLILQMNSLKPEDTAMYYCAASKSAYIFDDRDYWGQGTQVTVSSTHTCPPCPAPEAAGGPSVFLFPPKPKDTLMISRTPEVTCVVVDVSHEDPEVKFNWYVDGVEVHNAKTKPREEQYNSTYRVVSVLTVLHQDWLNGKEYKCKVSNKALPAPIEKTISKAKGQPREPQVYTLPPSREEMTKNQVSLTCLVKGFYPSDIAVEWESNGQPENNYKTTPPVLDSDGSFFLYSKLTVDKSRWQQGNVFSCSVMHEALHNHYTQKSLSLSPG
B15: A-Ye-13 (Fc fusion)
chain: EVQLQESGGGLVQAGGSLRLSCAASGFTFDDYAIGWFRQAPGKEREGVLCISSSGGSTYYADSVKGRFTISRDNAKNTVYLQMTNLKPEDTAVYLCGAPRDCSYYTGDDYWGQGTQVTVSSTHTCPPCPAPEAAGGPSVFLFPPKPKDTLMISRTPEVTCVVVDVSHEDPEVKFNWYVDGVEVHNAKTKPREEQYNSTYRVVSVLTVLHQDWLNGKEYKCKVSNKALPAPIEKTISKAKGQPREPQVYTLPPSREEMTKNQVSLTCLVKGFYPSDIAVEWESNGQPENNYKTTPPVLDSDGSFFLYSKLTVDKSRWQQGNVFSCSVMHEALHNHYTQKSLSLSPG

In general, Kd refers to a measure of binding affinity in units of concentration.

The target of the assay is T1, 4-1BB antigen (human, UniProt Q07011 24-186, limits assumed).
T1 construct: also called human 4-1BB antigen; human 4-1BB protein
T1 sequence (Q07011 24-186 limits assumed): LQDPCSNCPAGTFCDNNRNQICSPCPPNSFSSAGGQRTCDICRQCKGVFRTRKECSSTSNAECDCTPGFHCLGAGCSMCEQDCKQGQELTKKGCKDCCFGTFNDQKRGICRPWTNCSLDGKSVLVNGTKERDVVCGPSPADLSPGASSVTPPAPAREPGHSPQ
Briefly: BLI (ForteBio), antibody on AHQ sensor, 100 nM 4-1BB antigen, 1:1 model. As for the experimental part:
ForteBio affinity determination was performed according to the existing method (Estep, P et al., Solution-based measurement of high-throughput antibody-antigen affinity and epitope classification, MAbs, 2013.5(2):p. 270-8). Briefly, the sensor was equilibrated offline for 30 min in the assay buffer, then the baseline was established by detection online for 60 s, and the purified antibody obtained as described above was loaded onto the AHQ sensor online. Then, the sensor was put into 100 nM 4-1BB antigen to act for 5 minutes, and the sensor was transferred to PBS and dissociated for 5 minutes. Analysis of kinetics was performed using a 1:1 binding model.
In general terms: BLI is a label-free optical method that tracks binding on a fibre tip over time.
As to B1, the Kd is 28.3 nM. Regarding B2, the affinity, expressed as Kd, was 20.8 nM. In turn, B3 showed a Kd of 15.1 nM.

Take B4: the Kd was 17.5 nM.

In turn, B5 gave a Kd of 222 nM.

In turn, B6 displayed a Kd of 23.2 nM. B7 came in with a Kd of 21 nM.

Consider B8, for which binding was characterised by a dissociation constant (Kd) of 44.7 nM. B9 yielded a Kd of 14.3 nM. B10 registered a Kd of 46 nM.

On to B11, for which the Kd worked out at 30.8 nM. With B12, the equilibrium dissociation constant (Kd) amounted to 21.6 nM. B13 yielded a Kd of 20.5 nM. B14 registered a Kd of 25.1 nM. In the case of B15, the affinity, expressed as Kd, was 11.9 nM.

(Values after patent US20230357422A1 (published 2023).)
